Test results from patent US20150299268A1 (UNIVERSITY OF MARYLAND BALTIMORE, published 2015).

Assays:
[1] = biological target: T1, BaL-gp120 (HIV-1 BaL); test: ELISA
T1 construct: domain: gp120; also called monomeric gp120; monomeric BaL gp120

[2] = biological target: T2, FLSC R/T (HIV-1, UniProt P01730 26-208); test: ELISA
T2 construct: not shown: linker of FLSC not described

[3] = biological target: gp120-b12-ScFV; test: ELISA
[4] = biological target: gp120-VRC01-ScFV; test: ELISA
[5] = biological target: gp120-JR4-ScFV; test: ELISA
[6] = biological target: gp120-JR48.1-ScFV; test: ELISA
[7] = biological target: T3, BaL-gp120-E47AE91A (HIV-1 BaL); test: capture ELISA
T3 construct: domain: gp120

[8] = biological target: T4, BaL-gp120-W69A (HIV-1 BaL); test: capture ELISA
T4 construct: domain: gp120

[9] = biological target: T5, BaL-gp120-R476AR480A (HIV-1 BaL); test: capture ELISA
T5 construct: domain: gp120

[10] = biological target: Env of HIV-1 virus T250-4 (HIV-1); test: cell-based or functional assay
[11] = biological target: Env of HIV-1 virus 3817.v2.c59 (HIV-1); test: cell-based or functional assay
[12] = biological target: Env of HIV-1 virus 6540.v4.c1 (HIV-1); test: cell-based or functional assay
[13] = biological target: Env of HIV-1 virus 6545.v4.c1 (HIV-1); test: cell-based or functional assay
[14] = biological target: Env of HIV-1 virus SF162.LS (HIV-1); test: cell-based or functional assay
[15] = biological target: Env of HIV-1 virus BaL.26 (HIV-1); test: cell-based or functional assay
[16] = biological target: Env of HIV-1 virus 6535.3 (HIV-1); test: cell-based or functional assay
[17] = biological target: Env of HIV-1 virus AC10.0.29 (HIV-1); test: cell-based or functional assay
[18] = biological target: Env of HIV-1 virus THRO4156.18 (HIV-1); test: cell-based or functional assay
[19] = biological target: Env of HIV-1 virus CAAN5342.A2 (HIV-1); test: cell-based or functional assay
[20] = biological target: Env of HIV-1 virus 1006_11_C3_1601 (HIV-1); test: cell-based or functional assay
[21] = biological target: Env of HIV-1 virus ZM53M.PB12 (HIV-1); test: cell-based or functional assay
[22] = biological target: Env of HIV-1 virus Du172.17 (HIV-1); test: cell-based or functional assay
[23] = biological target: Env of HIV-1 virus Du422.1 (HIV-1); test: cell-based or functional assay

B1: N60-B1.1 (antibody, V domains shown)
VH: QLQLQESGPGLVKPSGTLSLTCSVSGGSMNGRNIYWAWIRQTPGKGLEWIGSVDVSDEDAGRTFYKWPIKSRASISADTSKNQFSLKLSSVTVADTGVYYCARETLYYVGNGYYYPLDVFYYNYYMDVWGKGTTVSVSS
VL: not shown
notes: also called bnAb N60-B1.1
[1]
  Fold of Ab needed for ELISA binding OD equal to half max on gp120: 1 fold
[2]
  Fold of Ab needed for ELISA binding OD equal to half max on gp120: 16.4 fold
[3]
  Fold of Ab needed for ELISA binding OD equal to half max on gp120: 0.01 fold
[4]
  Fold of Ab needed for ELISA binding OD equal to half max on gp120: 0.03 fold
[5]
  Fold of Ab needed for ELISA binding OD equal to half max on gp120: 0.04 fold
[6]
  Fold of Ab needed for ELISA binding OD equal to half max on gp120: 0.14 fold
[7]
  % Binding: 73%
[8]
  % Binding: 84%
[9]
  % Binding: 5%
[10]
  IC50 Titer (ug/ml), neutralization: 0.019 µg/mL
[11]
  IC50 Titer (ug/ml), neutralization: 1.53 µg/mL
[12]
  IC50 Titer (ug/ml), neutralization: 0.08 µg/mL
[13]
  IC50 Titer (ug/ml), neutralization: 0.37 µg/mL
[14]
  IC50 Titer (ug/ml), neutralization: 0.019 µg/mL
[15]
  IC50 Titer (ug/ml), neutralization: 0.019 µg/mL
[16]
  IC50 Titer (ug/ml), neutralization: 0.019 µg/mL
[17]
  IC50 Titer (ug/ml), neutralization: 0.14 µg/mL
[18]
  IC50 Titer (ug/ml), neutralization: 0.3 µg/mL
[19]
  IC50 Titer (ug/ml), neutralization: 0.019 µg/mL
[20]
  IC50 Titer (ug/ml), neutralization: 0.07 µg/mL
[21]
  IC50 Titer (ug/ml), neutralization: 0.019 µg/mL
[22]
  IC50 Titer (ug/ml), neutralization: 7.08 µg/mL
[23]
  IC50 Titer (ug/ml), neutralization: 0.18 µg/mL
